Test results taken from US20170174775A1 (published 2017).

Target: T1, IL-RI (Receptor Binding Assay)
T1 construct: The construct used in the RBA is not described; it may be the same as the IL-1R1 fusion protein; also called IL-1RI; IL-1R1
Test: Receptor Binding Assay; inhibition of IL-1 binding to IL-RI

T1 sequence (P14778 whole entry, the tested form may be a part): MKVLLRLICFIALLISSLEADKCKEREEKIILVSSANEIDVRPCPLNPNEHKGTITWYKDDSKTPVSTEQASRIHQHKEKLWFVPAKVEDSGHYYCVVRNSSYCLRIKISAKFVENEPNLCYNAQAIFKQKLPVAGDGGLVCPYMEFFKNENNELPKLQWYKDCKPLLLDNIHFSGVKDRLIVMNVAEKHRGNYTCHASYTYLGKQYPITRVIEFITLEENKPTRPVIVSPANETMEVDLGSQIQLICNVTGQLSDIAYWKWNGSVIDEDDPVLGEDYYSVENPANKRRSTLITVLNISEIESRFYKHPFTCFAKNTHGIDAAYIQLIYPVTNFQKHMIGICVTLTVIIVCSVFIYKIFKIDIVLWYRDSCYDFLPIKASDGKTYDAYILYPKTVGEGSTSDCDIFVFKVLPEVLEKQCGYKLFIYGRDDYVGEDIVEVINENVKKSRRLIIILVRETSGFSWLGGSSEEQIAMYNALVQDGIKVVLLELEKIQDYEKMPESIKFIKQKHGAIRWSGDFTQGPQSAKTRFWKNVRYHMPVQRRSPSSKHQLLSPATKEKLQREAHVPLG

Row | IC50 [nM] | Binder
1 | 0.28 | DOM4-130-54 (other, dAb (VK single variable domain) against IL-1R1; parent) VL: DIQMTQSPSSLSASVGDRVTITCRASQDIYLNLDWYQQKPGKAPKLLINFGSELQSGVPSRFSGSGYGTDFTLTISSLQPEDFATYYCQPSFYFPYTFGQGTKVEIKR
2 | 0.254 | DOM4-130-202 (other) DIQMTQSPSSLSASVGDRVTISCRASQDIYLNLDWYQQKPGKAPKLLISFGSELQSGVPSRFSGSGYGTDFTLTISSLQPEDSATYYCQPSFYYPYTFGQGTKVEIKR
3 | 0.257 | DOM4-130-201 (other) DIQMTQSPSSLSASVGDRVTITCRASQDIYLNLDWYQQKPGKAPKLLIKFGSELQSGVPSRFSGSGYGTDFTLTISNLQPEDFATYYCQPSFYFPYTFGQGTKVEIKW
